Source: patent publication US20130171184A1 (MACK TRUCKS, published 2013)
Where no end group is shown, it is not given here. The star is where a group is joined. Biotin = O=C1N[C@H]2[C@H](CS[C@H]2CCCCC(=O)*)N1

B1: biotinylated vitronectin peptide VA-26 (amino acids 43-68) (peptide)
peptide: Biotin-VTRGDVFTMPEDEYTVYDDGEEKNNA
notes: Synthetic peptide of human vitronectin V43-A68
B2: biotinylated vitronectin peptide AR-36 (Vn residues A360-R395, heparin-binding region) (peptide)
peptide: Biotin-APRPSLAKKQRFRHRNRKGYRSQRGHSRGRNQNSRR
notes: Synthetic peptide immobilised on extravidin coated plates; also called HBD peptide
B3: mouse vitronectin (other)
chain: DQESCKGRCTQGFMASKKCQCDELCTYYQSCCADYMEQCKPQVTRGDVFTMPEDDYWSYDYVEEPKNNTNTGVQPENTSPPGDLNPRTDGTLKPTAFLDPEEQPSTPAPKVEQQEEILRPDTTDQGTPEFPEEELCSGKPFDAFTDLKNGSLFAFRGQYCYELDETAVRPGYPKLIQDVWGIEGPIDAAFTRINCQGKTYLFKGSQYWRFEDGVLDPGYPRNISEGFSGIPDNVDAAFALPAHRYSGRERVYFFKGKQYWEYEFQQQPSQEECEGSSLSAVFEHFALLQRDSWENIFELLFWGRSSDGAREPQFISRNWHGVPGKVDAAMAGRIYVTGSLSHSAQAKKQKSKRRSRKRYRSRRGRGHRRSQSSNSRRSSRSIWFSLFSSEESGLGTYNNYDYDMDWLVPATCEPIQSVYFFSGDKYYRVNLRTRRVDSVNPPYPRSIAQYWLGCPTSEK
notes: also called mouse Vn
B4: control peptide GS-22 (peptide)
peptide: Biotin-GSNENQKTVKAESVPNMSFDQS
B5: Neisseria meningitidis Hsf (Msf) of strain H44/76, expressed on meningococci (other)
chain: NNEEQEEDLYLDPVQRTVAVLIVNSDKEGTGEKEKVEENSDWAVYFNEKGVLTAREITLKAGDNLKIKQNGTNFTYSLKKDLTDLTSVGTEKLSFSANGNKVNITSDTKGLNFAKETAGTNGDTTVHLNGIGSTLTDTLLNTGATTNVTNDNVTDDEKKRAASVKDVLNAGWNIKGVKPGTTASDNVDFVRTYDTVEFLSADTKTTTVNVESKDNGKKTEVKIGAKTSVIKEKDGKLVTGKDKGENGSSTDEGEGLVTAKEVIDAVNKAGWRMKTTTANGQTGQADKFETVTSGTNVTFASGKGTTATVSKDDQGNITVMYDVNVGDALNVNQLQNSGWNLDSKAVAGSSGKVISGNVSPSKGKMDETVNINAGNNIEITRNGKNIDIATSMTPQFSSVSLGAGADAPTLSVDGDALNVGSKKDNKPVRITNVAPGVKEGDVTNVAQLKGVAQNLNNRIDNVDGNARAGIAQAIATAGLVQAYLPGKSMMAIGGGTYRGEAGYAIGYSSISDGGNWIIKGTASGNSRGHFGASASVGYQW
notes: Opc-deficient variants or mutants isolate the Msf effect; also called NhhA; NMB0992
B6: rabbit vitronectin (other)
chain: DQESCKDRCTEGFNANRKCQCDELCSYYQSCCADYAAECKPQVTRGDVFTMPEDEYGPYDYIEQTKDNASVHAQPESPTVGQEPTLSPDLQTEGGAEPTHEVPLEPEMETLRPEGEDLQAGTTELGTSASPAEEELCSGKPFDAFTDLKNGSLFAFRGQYCYELDETAVRPGYPKLIQDVWGIEGPIDAAFTRINCQGKTYLFKGSQYWRFEDGILDPDYPRNISEGFSGIPDNVDAAFALPAHSYSGRERVYFFKGDKYWEYQFQQQPSQEECEGSSLSAVFEHFAMLHRDSWEDIFKLLFWGRPSGGARQPQFISRDWHGVPGKVDAAMAGRIYISGLTPSPSAKKQKSRRRSRKRYRSRYGRGRSQNSRRLSRSISRLWFSSEEVSLGPYNYEDYETSWLKPATSEPIQSVYFFSGDKYYRVNLRTQRVDTVNPPYPRSIAQYWLGCPAPGGQ
notes: also called rabbit Vn
B7: Neisseria meningitidis Opc of strain H44/76, expressed on meningococci (other)
chain: AQELQTANEFTVHTDLSSISSTRAFLKEKHKAAKHISVRADIPFDANQGIRLEAGFGRSKKNIINLETDENKLGKTKNVKLPTGVPENRIDLYTGYTYTQTLSDSLNFRVGAGLGFESSKDSIKTTKHTLHSSRQSWLAKVHADLLSQLGNGWYINPWSEVKFDLNSRYKLNTGVTNLKKDINQKTNGWGFGLGANIGKKLGESASIEAGPFYKQRTYKESGEFSVTTKSGDVSLTIPKTSIREYGLRVGIKF
notes: also called Opc-expressing Nm; (GB) Opc+Δµ

Experiments:
[1] = target: B5; test: ELISA, bacteria on immobilised biotinylated peptide
[2] = target: B5; test: ELISA, bacteria on peptide immobilised on extravidin coated plates
[3] = target: B5; test: ELISA, bacteria on immobilised vitronectin
[4] = target: B5; test: ELISA with immobilised peptides
[5] = target: T1, native human vitronectin preparation (nVn) (human, UniProt P04004 20-478); test: binding of bacteria to nVn against aVn as reference
T1 construct: Same protein as m4 in the native, closed conformation; also called native Vn

[6] = target: human fibronectin (from serum) (human, UniProt P02751 32-2296); test: bacteria incubated in decomplemented serum, dot blot with specific antibodies
[7] = target: B5; test: ELISA, bacteria on immobilised heparin-affinity purified vitronectin
control peptide SY-30 = control peptide SY-30 (N-terminal biotin); test: ELISA with immobilised peptides
control peptide GS-22 = target: B4; test: ELISA with immobilised peptides

T1 sequence (P04004 20-478 limits assumed): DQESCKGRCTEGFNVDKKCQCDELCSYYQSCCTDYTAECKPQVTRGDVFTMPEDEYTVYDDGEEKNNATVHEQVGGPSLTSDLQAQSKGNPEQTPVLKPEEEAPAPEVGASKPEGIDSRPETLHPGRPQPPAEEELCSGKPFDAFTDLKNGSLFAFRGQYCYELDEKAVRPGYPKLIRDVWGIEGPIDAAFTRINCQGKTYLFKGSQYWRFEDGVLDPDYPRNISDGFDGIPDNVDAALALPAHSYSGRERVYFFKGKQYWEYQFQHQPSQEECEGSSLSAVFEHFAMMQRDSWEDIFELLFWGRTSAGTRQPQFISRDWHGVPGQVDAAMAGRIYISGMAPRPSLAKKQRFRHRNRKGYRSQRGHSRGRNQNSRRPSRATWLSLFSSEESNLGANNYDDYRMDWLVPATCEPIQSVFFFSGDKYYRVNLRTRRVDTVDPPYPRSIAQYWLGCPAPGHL
human fibronectin (from serum), sequence (P02751 other isoform, or with tags, fused parts or gaps limits assumed): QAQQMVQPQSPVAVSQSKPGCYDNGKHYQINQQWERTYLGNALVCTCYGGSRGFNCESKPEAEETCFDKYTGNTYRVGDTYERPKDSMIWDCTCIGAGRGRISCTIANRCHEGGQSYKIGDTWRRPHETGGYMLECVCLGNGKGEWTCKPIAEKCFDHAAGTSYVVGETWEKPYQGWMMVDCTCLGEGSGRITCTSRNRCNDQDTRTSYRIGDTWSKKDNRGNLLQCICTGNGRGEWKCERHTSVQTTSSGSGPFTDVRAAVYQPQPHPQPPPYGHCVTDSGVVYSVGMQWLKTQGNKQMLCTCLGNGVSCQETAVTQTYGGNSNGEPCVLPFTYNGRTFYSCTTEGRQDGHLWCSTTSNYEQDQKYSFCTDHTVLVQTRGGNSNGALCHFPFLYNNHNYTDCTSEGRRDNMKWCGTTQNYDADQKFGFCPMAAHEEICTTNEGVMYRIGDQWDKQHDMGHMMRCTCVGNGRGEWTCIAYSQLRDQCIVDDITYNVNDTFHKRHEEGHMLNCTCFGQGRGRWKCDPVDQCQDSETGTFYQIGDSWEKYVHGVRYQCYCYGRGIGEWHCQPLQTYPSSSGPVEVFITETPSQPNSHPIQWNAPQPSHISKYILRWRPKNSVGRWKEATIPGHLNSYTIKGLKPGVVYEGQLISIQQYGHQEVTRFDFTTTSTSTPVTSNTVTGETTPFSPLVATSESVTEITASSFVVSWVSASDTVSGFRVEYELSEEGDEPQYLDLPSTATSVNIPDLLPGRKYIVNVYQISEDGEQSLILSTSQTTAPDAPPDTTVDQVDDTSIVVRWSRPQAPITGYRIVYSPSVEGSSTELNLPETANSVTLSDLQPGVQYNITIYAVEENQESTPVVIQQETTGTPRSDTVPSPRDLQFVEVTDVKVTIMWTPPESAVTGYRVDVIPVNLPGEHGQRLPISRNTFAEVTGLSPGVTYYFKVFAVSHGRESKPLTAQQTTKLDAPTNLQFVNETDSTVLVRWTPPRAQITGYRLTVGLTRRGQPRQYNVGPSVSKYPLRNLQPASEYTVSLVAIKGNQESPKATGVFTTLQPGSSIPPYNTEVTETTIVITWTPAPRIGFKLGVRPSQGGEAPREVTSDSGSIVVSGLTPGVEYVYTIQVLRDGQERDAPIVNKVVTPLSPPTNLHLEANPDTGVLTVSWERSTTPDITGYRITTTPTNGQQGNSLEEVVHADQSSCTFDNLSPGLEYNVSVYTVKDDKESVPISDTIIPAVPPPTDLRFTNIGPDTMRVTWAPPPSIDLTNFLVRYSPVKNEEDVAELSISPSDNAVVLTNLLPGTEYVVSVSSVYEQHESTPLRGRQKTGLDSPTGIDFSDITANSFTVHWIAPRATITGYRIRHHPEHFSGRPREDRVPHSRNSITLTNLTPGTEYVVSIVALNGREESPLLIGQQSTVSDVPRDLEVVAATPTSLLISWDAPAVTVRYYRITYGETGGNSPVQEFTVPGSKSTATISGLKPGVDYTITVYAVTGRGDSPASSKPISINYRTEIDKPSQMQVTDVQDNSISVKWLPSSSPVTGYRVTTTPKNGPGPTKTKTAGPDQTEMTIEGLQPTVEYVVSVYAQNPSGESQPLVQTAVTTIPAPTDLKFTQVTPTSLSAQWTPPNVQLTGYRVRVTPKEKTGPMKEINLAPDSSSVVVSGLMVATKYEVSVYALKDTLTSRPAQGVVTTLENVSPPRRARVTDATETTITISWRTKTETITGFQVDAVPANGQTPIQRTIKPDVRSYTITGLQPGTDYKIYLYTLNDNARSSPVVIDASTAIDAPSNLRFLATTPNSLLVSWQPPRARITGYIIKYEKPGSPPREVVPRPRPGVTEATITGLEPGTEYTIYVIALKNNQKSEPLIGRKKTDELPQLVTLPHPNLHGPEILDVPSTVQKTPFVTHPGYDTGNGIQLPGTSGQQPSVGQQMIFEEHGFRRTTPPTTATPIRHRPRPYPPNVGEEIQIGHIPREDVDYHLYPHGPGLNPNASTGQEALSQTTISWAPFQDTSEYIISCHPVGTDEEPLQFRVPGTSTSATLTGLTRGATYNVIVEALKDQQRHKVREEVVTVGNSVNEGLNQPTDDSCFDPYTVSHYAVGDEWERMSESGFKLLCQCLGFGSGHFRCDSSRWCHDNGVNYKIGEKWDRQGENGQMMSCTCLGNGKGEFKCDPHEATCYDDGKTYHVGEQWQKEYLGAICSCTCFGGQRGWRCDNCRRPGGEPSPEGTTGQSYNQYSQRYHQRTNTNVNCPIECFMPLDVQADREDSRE

## B1
[1]
  binding result: binds

## B2
[2]
  binding result: binds

## B3
[3]
  binding result: binds

## B4
[4]
  binding result: no binding

## B5
[5]
  binding relative to the fully activated preparation of Vn: ~30%
[6]
  binding result: no binding (tested: 10% pooled human serum)

## B6
[7]
  binding result: binds

## B7
Control peptide SY-30
  binding result: no binding
Control peptide GS-22
  binding result: no binding
[5]
  binding relative to the fully activated preparation of Vn: ~30%
